Assay results from the DeepSol protein solubility set.

test: soluble on expression in E. coli; label from the status in PepcDB or PDB records

Row | Sequence | soluble on expression in E. coli
1 | MGSDKIHHHHHHMTDAVEILGAERSGRWVVTCDHACNRVPDDVAGGDLGLPPADMARHIAYDVGALGVARAMGEALNGPVVTSRFSRLVIDPNRGEDDPTLLMQIYDGSIIPANRGASQAEIDRRLDRFHRPYHRALAHVIAQRDDPIVVAIHSFTPQLIGRAPRPWHVSVLYAGDTRLPYPLLARLRDEDDLCVGDNEPYSGHLPGDALDRHGVQPGRLHVLIEVRNDLIETAEDQARWGVRLAQMLEAAATSADL | not soluble
2 | MSLYVSKLFTSQQWRELKLISYVTENADAIGVKDKELSKALNISMLTLQTCLTNMQFMKEVGGITYKNGYITIWYHQHCGLQEVYQKALRHSQSFKLLETLFFRDFNSLEELAEELFVSLSTLKRLIKKTNAYLTHTFGITILTSPVQVSGDEHQIRLFYLKYFSEAYKISEWPFGEMLNLKNCERLLSLMIKEVDVRVNFTLFQHLKILSSVNLIRYYKGYSAVYDNKKTSHRFSQLIQSSLEIQDLSRLFYLKFGLYLDETTIAEMFSNHVNDQLEIGYAFDSIKQDSPTGCRKVTNWVHLLDELEIRLNLSVTNKYEVAVILHNTTVLKEEDITANYLFFDYKKSYLNFYKQEHPHLYKAFVAGVEKLMRSEKEPISKELTNQLIYAFFITWENSFLKVNQKDEKIRLLVIERSFNSVGNFLKKYIGEFFSITNFNELDALTIDLEEIEKQYDVIVTDVMVGKSDELEIFFFYKMIPEAIIDKLNCVFKHQLCRQEGHHHHHH | not soluble
3 | MSSEEDEIAELSKDTPPEKKRKISESGASSSSFIPESTSEESLSLKSKKSGSRKRILTASSSTNSIAMKSSASWIQEKDTPINKSDEEKSIAESLLIANFSNEQLDRYTAFKRSRFNRRIIKNVITRTTGQIPSDPLALAVAGLTKMFIGDLVEEAVELRGALNEQDRPVQPYHITRAFDKLLAEGKLWPPYGAKY | not soluble
4 | MGSDKIHHHHHHMKQIPLAERMRPKTLADYVGQQHLIGSGAVLRQMIEQGQTPSMILWGPPGVGKTTLAEIIAHEVDAPFYTLSAVSSGVKEVREVIADIESNRGNLFDKGGRAILFIDEIHRFSKSQQDSLLAAVERGIVTLIGATTENPSFEVIRPLLSRCQVYVLKPQSDEDLLLLAHRAIDRDELLAAKHPVLEETEALLLYAGGDARKLLNILDLLATSEVEDRLVITNEKIRQRLQENPAAFDKGGELHYDIASAFIKSIRGSDPDAAIYWLARLIDGGEEPSFIARRLIISASEDIGLANPNAMLIAMACAEALDRIGWPEGRIPLAEATIYLATSEKSNSAYLAIDSALEYVRQSGNLPVPLHLRNAPTRLMADLDYGKGYKYSHDFPEHFVSQQYLPDKAANTSFWTPQMHTVHEAKLGERMKRWWKREKSQKDTAE | not soluble
5 | MKVAIASDHGGVHIRNEIKELMDELQIEYIDMGCDCGSGSVDYPDYAFPVAEKVVSGEVDRGILICGTGIGMSISANKVKGIRCALAHDTFSAKATREHNDTNILAMGERVIGPGLAREIAKIWLTTEFTGGRHQTRIGKISDYEEKNL | soluble
6 | MGSDKIHHHHHHMASILAVDVGTTSIKAGIVSTENFEAESTQSTRAVVEYPKKHWAEKDPEKLWNSIVEVCKPLAEKANPDAIVFGAHMAGVVPVDGEGNALRNIITWLDERAAGLPEDVWKGLIKIQGYSLTKLIKFLRLTGGAPSRTGKDPISKIVWIRENEPDVFGKTFKMLDVRGYLVARATGNFVTSPDEAHLTWLADTRGGKARWSESILKDYALSASLFPEIKNCTEIAGYLRPEVRKEFGLEGDVPVMVGSGDVAAAAVGSGAVKDYECHIYVGTSDWVAAHIPQRKTDIFHFIGSLLSAIPEKYLLIAEQEVAAGALEWAMRLVGIQGEYELVKELVEKAPAGKLIFMPWFYGERAPIDDPYVRGGLVNVGLDSGREEVLRAMMEGVALNIKWVFGYVEKMTAPQQMVSIVGGGALFDIWCQIISNAVRRPLRRIKHPEETGLRGLATMAAVGLGEESFESAAAKFEVDRVFKPDDEEAKVYDRLFEYYKELYSKLKKVYRKLNSAEY | not soluble
7 | MGSDKIHHHHHHMTNHQHPQTTTQWIDLIANSELPAITSTARMLDKFSNDDKSSLPKLSEAILHDQGLSSCLLKVANNIQHISINKVTTVSRASVVLGIQSVKNICLTAKLVSSLLASKSLDINVYEQLTQLMANSFYAGMLAKMMVPNYSEEIQEEVYLAAMLYRIGESAFWSAGGDVAKKLANYEAKSPQDFNQYCRKEMGTNFSELSKGLAGTWNLSDLLIKALDQPTTRTDEVKVIYFADKLSAIIAKPEGCEEDYHKLLKEIAYIVGISVRQLTVRIEHTREQAEKLLSSYGAEILTERINSLPTAEDFKSLGGDFDTREVVSKDKALLNGFMKLTKLIQNSKDFNEYLQLTLESLALTFAFDRSSFLMLVDDRARVKSRLVVNKNAQDDASKINIDIKHSDNVIARVISTDTAALINDHQEIRWRDLVTEEISEVIVEGAIAFVPVKIGGKAIGVICLQLLSPDQKIETQDFQQICAFIDHLNMCLTMIKYS | not soluble
8 | MGSDKIHHHHHHACSGQLDTIQEYLDAGETIYAAKMDSVDIRPGYNRVEVTGLLKYGMDTERCVIHWTPDNDSLVVPVKRIDPVDTFRVFIENLPEGTYQFEIVTYNKSGYRSISTSKGSKTYGDRYISSLRVRSLLSTEVEGENLLLNFSSEMAEALATKVFYLNSAGEKQEQEVARGDNQIKITDWKPRGAYEVKTYYIPEVNAVDTFSVSSTGVFPEKIVEMDKSTFREIILDNDIRLNAWGGALWKAWDNAYENTNYAHSDNTNPIVFPAWFTFDLGEKALLKRFDLFSVVRDDLNYNGGNMKSWEIWGREDEPANSSWDGWTKLITCNSFKPSGKPVGENTDEDNSYIAKGEKFDFPSGIPEVRYIRIKVLDSWSGQGYVQFSEFTFYKSE | not soluble
9 | MNKLQSYFIASVLYVMTPHAFAQGTVTIYLPGEQQTLSVGPVENVVQLVTQPQLRDRLWWPGALLTDSAAKAKALKDYQHVMAQLASWEAEADDDVAATIKSVRQQLLNLNITGRLPVKLDPDFVRVDENSNPPLVGDYTLYTVQRPVTITLLGAVSGAGQLPWQAGRSVTDYLQDHPRLAGADKNNVMVITPEGETVVAPVALWNKRHVEPPPGSQLWLGFSAHVLPEKYADLNDQIVSVLTQRVPD | not soluble
10 | KPGFQLGVTVDYEIGKHWMLMSGLSWLQNRSTMKMMDHMVTYFPKTEIKMNNLILPLKMGYNIRVSDKLSLIPSVGVYASYGFGAGNCSLDVIHQEGDNITTEPAKWKPLDGFSYKAGEPNNSGNLQAFRRWDYGGIVGMKAVIADHYTISFDYRVGIKKIQAQNGLRNSTFQFSVGYRF | not soluble
11 | MYPNQQFMRGKVRDLPDSGVIYLNRIKPIAQEFQQETTAEVEVSVQNIPRHGKSPSSFEKYNSVEERSPTRLPMITTSTTAPKILIEKKVNQQKQEFQKSKQSQLSVPEEAELDRLLDDLLKSDNIPKVILDFFFKMKMIQNFQKTLQLAKIGRRSSKRHVGAYKPKVISFDGTARVNKQHARAHASPTSIGLNPIKTYAYGSSSSQNRGPDFDPWERMGQKALCNLLGTLLLELERIWEHMGGFIDTESPAFFVNETLAQQHIACVFCNKLFNMPQTWEKAQNALNLAGCSNLGGAKKACNGIVNNANLTESFPNMLPHNVQLKDLACKKYCKEQ | soluble
12 | GANTTETPVKDVELDGRWDDPIRSAATNCPITVFTDGYLLTLKNASPDRDMTIRITDMAKGGVVYENDIPEVQSAYITISIANFPAEEYKLEITGTPSGHLTGYFTKE | soluble
13 | MIVPGGFPAPVTGSAVAASPPLPTVRLLSLDAHGRVLDWINWQDAACLYARDAVSWTLGEPCMQIHGGVSRLTGERSVLELHPIIAARGHARSRALDPTPTLTNTALFARDSQLCMYCGQHFSRPHLTRDHVMPVSKGGRDSWENVVTACFQCNSRKANRTPQQAHMPLLAVPYRPSWIEHLILSNRNILSDQMAFLRAQLPKRSKLSLLEHHHHHH | not soluble
14 | VPACTVSNTTVDWQDVEIQTLSQNGNHEKEFTVNMRCPYNLGTMKVTITATNTYNNAILVQNTSNTSSDGLLVYLYNSNAGNIGTAITLGTPFTPGKITGNNADKTISLHAKLGYKGNMQNLIAGPFSATATLVASYS | soluble
15 | SLNAAAADRNKDPILSVLKSRVASNRRLFALEISSGTGQHVVHFAKAFPNITWQPSEVETQSLSSIEAYRQYHRLQNVQPPIYLDVSQSWQTWGGFPAESCDLIININMMHISPLACTTGLFHGVGQILKPQGLLLTYGPYAFNGSIVPQSNFDFDQSLRYRNPEWGLRDASFLTTLGQENGLRLEEIVDMPANNKCLLFRKDSVV | soluble
16 | MGSDKIHHHHHHMSQAIPSSRVGVKINEWYKMIRQFSVPDAEILKAEVEQDIQQMEEDQDLLIYYSLMCFRHQLMLDYLEPGKTYGNRPTVTELLETIETPQKKLTGLLKYYSLFFRGMYEFDQKEYVEAIGYYREAEKELPFVSDDIEKAEFHFKVAEAYYHMKQTHVSMYHILQALDIYQNHPLYSIRTIQSLFVIAGNYDDFKHYDKALPHLEAALELAMDIQNDRFIAISLLNIANSYDRSGDDQMAVEHFQKAAKVSREKVPDLLPKVLFGLSWTLCKAGQTQKAFQFIEEGLDHITARSHKFYKELFLFLQAVYKETVDERKIHDLLSYFEKKNLHAYIEACARSAAAVFESSCHFEQAAAFYRKVLKAQEDILKGRVFICLLRKKVMMCLAVTLVFGSMSFPTLTNSGGFKESTDRNTTYIDHSPYKLSDQKKALS | not soluble
17 | MSTLPPCPQCNSEYTYEDGALLVCPECAHEWSPNEAATASDDGKVIKDSVGNVLQDGDTITVIKDLKVKGSSLVVKVGTKVKNIRLVDGDHDIDCKIDGIGAMKLKSEFVRKV | not soluble
18 | SFGVIQKEERFNEVFLNYFKENKIEIAHAITKLFPFLESLRDHSFITDKIYADSYEACRNSVPIVKVVYNVLSHLERLSDSSFLWALFNRVNLKEYPALREIHKSLGTELQDRYSPQKCKQEEQKLATVHPSYEQGTNLCTHEKWAQPCFVKQDNLQEPEIQQNQVDEIIVISSESSECSDEDEEDQALGTGLRRQMNKEAEDSAPHRRSRT | soluble
19 | MAREGCLALNVECRGRRVKFEARMETLPNGRQILVDRVVFPDSVAVLPLVEKDGEWHVVLVRQFRPSIGKWTLEAPAGTLKEGETPEAAAARELEEEAGLKAKALVRVGGGHVSPGYSTEYIHLFLAYSLEKGEMSPEEHEVIEGVVEMRLSEALESIESGVIEDLKTIALVMAAASRVHQLEAGGGV | soluble
20 | MSYPSMSSFSTNVPDSENSSRSSVDGYNLKDTTSEKIKQFRENNKRKTSNSSSEEEPETEEGDPSRKLSSKSAEDKFVGRGIDAPRGRIANIRRESSCSVDSEAAHERLTKASQQVSTGFDDIALDSERSPGTSAEFRRRAPSFNTVIGEPISVVTNAFIPHSCSPSPTRQQADLIKQCYSPSTQQMVRPNISYSPSPRESPAQSPTRHAHKLKFQRAESPICRQPIKRKLTVTTLAETDIKRLFVPRSNTSPLVTDKTFPYPQNVGQLFESASTSSEFSSFSVPHSPGPLRAMTPLSSVSVGDQEENSPSVKDAEEKTTDNDEEMQDVEMSDNGTEVDDDLIRAATEAPLPDDDDQNDFAY | not soluble
21 | MSLEISKQTSDLLLSLEKKKGTLPKFSVLRSIPRNRIIYGAPGTGKSNYLEREVGKIFGDNPYVFTRVTFFPGYTYGQFIGAYKPVPIYKKLSGEEEIFSSNFRDKMENFEPMIDYQFVPGPFIDVLIKALKNRYTNFILIIEEINRANAASVFGDIFQLLDRNKNGESDYPVTFGPDIMNYLARNGIKDEMIKLPSNFFIWATMNNADQGVLPLDTAFKRRWSFEYLELEKYRKAVDSWKLSLRYKGHNKVIMWNDFRDIINKRLKGKVPEDKLLGPFFLKESELWNQNVFKNKLLYYLKEDVFKHNPTIDFLNASTFSELIEKYDGSDNIFTFDIDDSSFVSDEGGSHHHHHH | soluble
